Experimental data reported in patent US20250270287A1 (KEROS THERAPEUTICS, published 2025).
Positions count from the first letter of the chain named.

T1: Activin A (UniProt P08476 311-426)
T1 sequence (looked up): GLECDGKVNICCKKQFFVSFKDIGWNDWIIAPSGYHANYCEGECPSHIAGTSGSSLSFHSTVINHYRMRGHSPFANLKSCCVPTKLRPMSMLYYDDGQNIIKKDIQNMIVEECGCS

T2: growth differentiation factor 8 (GDF-8) (UniProt O14793 267-375)
T2 construct: also called myostatin
T2 sequence (looked up): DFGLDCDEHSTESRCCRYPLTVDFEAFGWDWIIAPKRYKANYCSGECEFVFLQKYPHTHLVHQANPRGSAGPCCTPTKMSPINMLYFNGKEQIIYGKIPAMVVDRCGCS

T3: BMP-9 (UniProt Q9UK05 320-429)
T3 construct: also called bone morphogenetic protein 9
T3 sequence (looked up): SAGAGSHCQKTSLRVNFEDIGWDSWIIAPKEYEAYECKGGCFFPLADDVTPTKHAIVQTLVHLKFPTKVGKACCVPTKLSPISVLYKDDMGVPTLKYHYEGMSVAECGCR

T4: Activin B (UniProt P09529 293-407)
T4 sequence (looked up): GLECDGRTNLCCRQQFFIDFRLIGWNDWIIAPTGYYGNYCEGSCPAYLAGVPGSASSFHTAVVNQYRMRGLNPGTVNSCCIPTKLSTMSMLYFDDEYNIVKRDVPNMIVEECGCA

T5: GDF-11 (UniProt O95390 299-407)
T5 construct: also called growth and differentiation factor 11
T5 sequence (looked up): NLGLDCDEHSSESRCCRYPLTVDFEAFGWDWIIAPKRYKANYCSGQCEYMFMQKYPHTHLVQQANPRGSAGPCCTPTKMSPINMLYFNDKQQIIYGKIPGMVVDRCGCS

T6: BMP-10 (UniProt O95393 317-424)
T6 sequence (looked up): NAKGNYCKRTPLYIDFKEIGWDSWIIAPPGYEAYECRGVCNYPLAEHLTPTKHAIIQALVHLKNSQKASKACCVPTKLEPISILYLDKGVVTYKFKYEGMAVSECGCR

B1: ActRIIB (SEQ ID NO: 31) Fc protein (Fc fusion)
chain: GRGEAETRECIYYNANWELERTNQSGLERCEGEQDKRLHCYASWRNSSGTIELVKKGCWLDDFNCYDRQECVATEENPQVYFCCCEGNFCNERFTHLPEAGGPEVTYEPPPTAPT
notes: also called ActRII-Fc; wild-type extracellular ActRIIB; not shown: linker (if any) and Fc domain
B2: ActRIIB-B1B7 (SEQ ID NO: 116) chimera-Fc protein (Fc fusion)
chain: B1 chain with I11L, Y12F, Y13F, R93K, T95S, H96Y, L97F
notes: Tested as chimera-Fc protein; not shown: linker (if any) and Fc domain
B3: ActRIIB-A5 (SEQ ID NO: 123) chimera-Fc protein (Fc fusion)
chain: B1 chain with F63I, Q69T, E70D
notes: as for B2
B4: ActRIIB-A3 (SEQ ID NO: 122) chimera-Fc protein (Fc fusion)
chain: B1 chain with E31Y, E33D, Q34K
notes: as for B2
B5: ActRIIB-A2 (SEQ ID NO: 121) chimera-Fc protein (Fc fusion)
chain: B1 chain with L19K, E20D
notes: as for B2
B6: ActRIIB-B1B4 (SEQ ID NO: 117) chimera-Fc protein (Fc fusion)
chain: B1 chain with I11L, Y12F, Y13F, T50S, L53I, K56Q
notes: as for B2
B7: ActRIIB-A6 (SEQ ID NO: 124) chimera-Fc protein (Fc fusion)
chain: B1 chain with E75K, E76D, N77S, Q79E
notes: as for B2
B8: ActRIIB-A7 (SEQ ID NO: 125) chimera-Fc protein (Fc fusion)
chain: B1 chain with F89M
notes: as for B2
B9: ActRIIB-A1 (SEQ ID NO: 120) chimera-Fc protein (Fc fusion, not shown: a dimerising Fc or GST)
chain: GAILGRSETQECIYYNANWELERTNQSGLERCEGEQDKRLHCYASWRNSSGTIELVKKGCWLDDFNCYDRQECVATEENPQVYFCCCEGNFCNERFTHLPEAGGPEVTYEPPPTAPT

target: T1, Activin A; assay: SPR (Biacore 8K), Fc protein captured on anti-human IgG, ligand injected
Procedure: (§1) The Cytiva Biacore 8k was used to measure the kinetics of the interactions between the ActRII- and chimera-Fc proteins and Activin A/Activin B/growth differentiation factor 8 (GDF-8)/GDF-11/BMP-9/BMP-10. Series S CM4 Sensor Chips were immobilized with anti-human capture antibody using the reagents and protocol in the Biacore Human Antibody Capture Kit (GE Life Sciences). Briefly, anti-human IgG was diluted to 25 μg/mL in immobilization buffer. The carboxylated surface of the sensor was activated by injecting a mixture of EDC and NHS. The anti-human IgG was injected into the activated sensor chip flow cells at 10 μL/min for a total of 7 minutes until the chip reached an immobilization level of 3000 resonance units (RU). Ethanolamine was injected to deactivate the sensor surfaces. The chip has 8 flow cells to be used for binding analysis, each with an in-line reference surface to subtract instrument noise and non-specific binding to the sensor chip. The ActRII- and chimera-Fc proteins were captured in their own flow cell to allow for a maximum analyte binding response of 20-30 RU. This was done by injecting 10-20 μL of the ActRII- and chimera-Fc proteins into the flow cells at a concentration of 2 μg/mL until 60-90 RU was captured. Ligand at a single concentration was injected at […] for 60 seconds and then allowed to dissociate under buffer flow for no less than 5 minutes. After the cycle completed, captured protein was stripped from the chip with an injection of 3 M magnesium chloride, the regeneration buffer provided with the Biacore Human Antibody Capture Kit. Each ligand was injected in a concentration series, including a buffer only 0 nM concentration to serve as a double reference for subtracting out instrument noise. The data were analyzed using the Biacore Insight Evaluation Software.

| Kd [pM] | Binder |
| --- | --- |
| 10.6 | B1 |
| < 1 | B2 |
| 22.8 | B3 |
| 16.5 | B4 |
| 34.7 | B5 |
| 10.8 | B6 |
| 10.4 | B7 |
| 16.9 | B8 |

target: T2, growth differentiation factor 8 (GDF-8); assay: as above
Procedure: as §1

| Kd [pM] | Binder |
| --- | --- |
| 3.53 | B2 |
| 16.5 | B3 |
| < 1 | B4 |
| 39.3 | B5 |
| 71.8 | B6 |
| 28.8 | B7 |
| < 1 | B8 |

target: T3, BMP-9; assay: as above
Procedure: as §1

| Kd [pM] | Binder |
| --- | --- |
| 18600 | B2 |
| 143 | B3 |
| 12.3 | B4 |
| 16.6 | B5 |
| 39.8 | B6 |
| 9.62 | B7 |
| 19.1 | B8 |

target: T4, Activin B; assay: as above
Procedure: as §1

| Kd [pM] | Binder |
| --- | --- |
| < 1 | B1 |
| < 1 | B2 |
| 4.91 | B3 |
| < 1 | B4 |
| 8.78 | B5 |
| 70.2 | B6 |
| 1 | B7 |
| < 1 | B8 |

target: T5, GDF-11; assay: as above
Procedure: as §1

| Kd [pM] | Binder |
| --- | --- |
| < 1 | B2 |
| 5.66 | B3 |
| < 1 | B4 |
| < 1 | B5 |
| 29.2 | B6 |
| < 1 | B7 |
| < 1 | B8 |

target: T6, BMP-10; assay: as above
Procedure: as §1

| Kd [pM] | Binder |
| --- | --- |
| 15.6 | B2 |
| 15.2 | B3 |
| 15.9 | B4 |
| 29.8 | B5 |
| 76.1 | B6 |
| 9.69 | B7 |
| 8.72 | B8 |

target: T1, Activin A; assay: cell-based or functional assay

| IC50, SBE-luciferase reporter in HEK293 cells [µg/mL] | Binder |
| --- | --- |
| 0.075 | B9 |
| 0.094 | B2 |
| 0.057 | B3 |
| 0.056 | B4 |
| 0.078 | B5 |
| 0.35 | B6 |
| 0.089 | B7 |
| 0.057 | B8 |

target: T3, BMP-9; assay: cell-based or functional assay

| IC50, BRE-luciferase reporter in C2C12 cells [µg/mL] | Binder |
| --- | --- |
| 0.14 | B9 |
| 0.067 | B2 |
| 0.4 | B3 |
| 0.1 | B4 |
| 0.082 | B5 |
| 0.39 | B6 |
| 0.23 | B7 |
| 0.061 | B8 |

target: T4, Activin B; assay: cell-based or functional assay

| IC50, SBE-luciferase reporter in HEK293 cells [µg/mL] | Binder |
| --- | --- |
| 0.072 | B9 |
| 0.18 | B2 |
| 0.072 | B3 |
| 0.075 | B4 |
| 0.13 | B5 |
| 0.34 | B6 |
| 0.14 | B7 |
| 0.073 | B8 |

target: T5, GDF-11; assay: cell-based or functional assay

| IC50, SBE-luciferase reporter in HEK293 cells [µg/mL] | Binder |
| --- | --- |
| 0.14 | B9 |
| 0.14 | B2 |
| 0.13 | B3 |
| 0.15 | B4 |
| 0.3 | B5 |
| 0.77 | B6 |
| 0.25 | B7 |
| 0.13 | B8 |
